The supplement of paper PMC7877785
± gives the uncertainty stated by the source.

Test: self-splicing fitness, log relative to wild type (ln ratio); higher = more splicing; Tetrahymena group I intron in knt gene, E. coli kanamycin selection, DiMSum; sequences stand for … in CUCUCU…GGAGGGAAAAGUUAUCAGGCAUGCACCUGGUAGCUAGUCUUUAAACCAAUAGAUUGCAUCGGUUUAAAAGGCAAGACCGUCAAAUUGCGGGAAAGGGGUCAACAGCCGUUCAGUACCAAGUCUCAGGGGAAACUUUGAGAUGGCCUUGCAAAGGGUAUGGUAAUAAGCUGACGGACAUGGUCCUAACCACGCAGCCAAGUCCUAAGUCAACAGAUCUUCUGUUGAUAUGGAUGCAGUUCACAGACUAAAUGUCGGUCGGGGAAGAUGUAUUCUUCUCAUAAGAUAUAGUCGGACCUCUCCUUAAUGGGAGCUAGCGGAUGAAGUGAUGCAACACUGGAGCCGCUGGGAACUAAUUUGUAUGCGAAAGUAUAUUGAUUAGUUUUGGAGUACUCGUGGUCG
Summary of the method: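 DiMSum derived fitness as the error-weighted combination of fold changes across replicates, kanamycin versus no kanamycin, normalised to wild type. E. coli BL21(DE3) held the library, which randomised all eight P1ex-region intron nucleotides within the knt kanamycin-resistance gene on pET-22b(+). Six replicate transformations grew overnight at 37°C or 30°C on LB agar with or without 25 μg/mL kanamycin, also containing 100 μg/mL carbenicillin, 50 μM IPTG and 0.2% rhamnose, and pooled colonies were amplicon-sequenced on an Illumina HiSeq 2500.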

Sequence | self-splicing fitness (ln) (30 °C) | self-splicing fitness (ln) (37 °C)
CCUAAGCAAUAUUACGGUGC | -2.79 ± 0.28 | -2.19 ± 0.32
CCUAAGCAAUAUUACGGUGU | -4.62 ± 0.23 | -1.89 ± 0.16
CCUAAGCAAUAUUACGUAGG | -3.82 ± 0.15 | -2.94 ± 0.22
CCUAAGCAAUAUUACGUCAC | – | -1.54 ± 0.49
CCUAAGCAAUAUUACGUGAC | -4.32 ± 0.3 | –
CCUAAGCAAUAUUACGUGCC | -2.84 ± 0.3 | –
CCUCAGCAAUAUUACGACCG | -0.986 ± 0.093 | -0.493 ± 0.095
CCUCAGCAAUAUUACGAGGU | -3.38 ± 0.21 | -2.62 ± 0.19
CCUCAGCAAUAUUACGCAUU | -3.81 ± 0.19 | -2.3 ± 0.22
CCUCAGCAAUAUUACGCCGC | -3.72 ± 0.37 | –
CCUCAGCAAUAUUACGCGAA | -3.88 ± 0.34 | -3.79 ± 0.34
CCUCAGCAAUAUUACGCGAC | -3.47 ± 0.28 | -2.08 ± 0.22
CCUCAGCAAUAUUACGCUAA | -2.79 ± 0.14 | -3.05 ± 0.2
CCUCAGCAAUAUUACGCUGC | -3.53 ± 0.21 | -1.69 ± 0.24
CCUCAGCAAUAUUACGGAUA | -1.87 ± 0.15 | -2.41 ± 0.24
CCUCAGCAAUAUUACGGUCA | -3.48 ± 0.26 | -2.04 ± 0.15
CCUCAGCAAUAUUACGGUGU | -3.9 ± 0.27 | -1.76 ± 0.16
CCUCAGCAAUAUUACGUAGC | -3.9 ± 0.19 | -2.73 ± 0.28
CCUCAGCAAUAUUACGUAGG | -2.71 ± 0.18 | -2.38 ± 0.3
CCUCAGCAAUAUUACGUGAG | -0.99 ± 0.057 | -0.881 ± 0.071
CCUCAGCAAUAUUACGUGCA | -4.09 ± 0.37 | -2.32 ± 0.35
CCUCAGCAAUAUUACGUUGC | -3.32 ± 0.28 | -2.52 ± 0.32
CCUCAGCAAUAUUACGUUUA | -4.17 ± 0.2 | -2.57 ± 0.14
CCUGAGCAAUAUUACGACCG | -3.73 ± 0.39 | -2.5 ± 0.37
CCUGAGCAAUAUUACGAGAA | -3.46 ± 0.4 | -1.79 ± 0.29

Sequence | self-splicing fitness (ln) (30 °C) | self-splicing fitness (ln) (37 °C)
CCUGAGCAAUAUUACGAGAC | -2.85 ± 0.33 | -0.69 ± 0.33
CCUGAGCAAUAUUACGAUUU | -3.27 ± 0.19 | -2.3 ± 0.16
CCUGAGCAAUAUUACGCACA | -1.53 ± 0.17 | -1.6 ± 0.35
CCUGAGCAAUAUUACGCGAU | -3.71 ± 0.18 | -2.25 ± 0.14
CCUGAGCAAUAUUACGGCCC | -2.54 ± 0.32 | –
CCUGAGCAAUAUUACGGUAA | -3.76 ± 0.37 | -3.55 ± 0.25
CCUGAGCAAUAUUACGUAAC | – | -2.3 ± 0.35
CCUGAGCAAUAUUACGUACC | -0.796 ± 0.25 | -2.27 ± 0.37
CCUGAGCAAUAUUACGUCCU | -4.5 ± 0.39 | –
CCUGAGCAAUAUUACGUGCU | -3.25 ± 0.19 | -2.24 ± 0.2
CCUGAGCAAUAUUACGUUAC | -3.52 ± 0.26 | -3.09 ± 0.36
CCUGAGCAAUAUUACGUUGC | -2.07 ± 0.31 | -2.27 ± 0.43
CCUGAGCAAUAUUACGUUGG | -4.56 ± 0.29 | -2.16 ± 0.16
CCUUAGCAAUAUUACGAAGA | -2.58 ± 0.27 | -3.3 ± 0.26
CCUUAGCAAUAUUACGAAGG | -3.53 ± 0.32 | –
CCUUAGCAAUAUUACGAGCA | -2.64 ± 0.22 | -3.17 ± 0.33
CCUUAGCAAUAUUACGAGCG | -1.02 ± 0.077 | -0.792 ± 0.095
CCUUAGCAAUAUUACGAUCC | -2.32 ± 0.4 | -2.74 ± 0.49
CCUUAGCAAUAUUACGAUCG | -0.392 ± 0.07 | -0.134 ± 0.1
CCUUAGCAAUAUUACGCAUA | -3.22 ± 0.46 | -2.24 ± 0.37
CCUUAGCAAUAUUACGCCCA | -1.96 ± 0.34 | –
CCUUAGCAAUAUUACGCGGU | -3.78 ± 0.36 | –
CCUUAGCAAUAUUACGCUAG | -3.32 ± 0.29 | -2.04 ± 0.38
CCUUAGCAAUAUUACGCUGG | -1.57 ± 0.18 | -2.43 ± 0.3
CCUUAGCAAUAUUACGGAGC | -3.54 ± 0.34 | -2.4 ± 0.25

Sequence | self-splicing fitness (ln) (30 °C) | self-splicing fitness (ln) (37 °C)
CCUUAGCAAUAUUACGGCGG | -2.92 ± 0.17 | -2.05 ± 0.21
CCUUAGCAAUAUUACGGCUC | -3.72 ± 0.21 | -3.45 ± 0.39
CCUUAGCAAUAUUACGGUAG | -4.09 ± 0.28 | -2.1 ± 0.23
CCUUAGCAAUAUUACGGUGC | -3.75 ± 0.19 | -3.01 ± 0.25
CCUUAGCAAUAUUACGGUUG | -2.38 ± 0.1 | -1.48 ± 0.098
CCUUAGCAAUAUUACGUCCC | -1.81 ± 0.5 | –
CCUUAGCAAUAUUACGUCUA | – | -2.65 ± 0.23
CCUUAGCAAUAUUACGUCUU | -3.66 ± 0.16 | -2.61 ± 0.17
CCUUAGCAAUAUUACGUGAA | -4.2 ± 0.24 | -3.37 ± 0.28
CCUUAGCAAUAUUACGUUAA | -3.13 ± 0.27 | -2.71 ± 0.31
CCUUAGCAAUAUUACGUUCG | -3.37 ± 0.29 | -0.857 ± 0.18
CCUUAGCAAUAUUACGUUCU | -4.18 ± 0.46 | -1.5 ± 0.34
CGAAAGCAAUAUUACGACCC | -1.42 ± 0.2 | -0.478 ± 0.23
CGAAAGCAAUAUUACGACCG | -0.423 ± 0.12 | -0.183 ± 0.15
CGAAAGCAAUAUUACGACGC | -1.81 ± 0.13 | 0.0494 ± 0.18
CGAAAGCAAUAUUACGAUGG | -0.519 ± 0.07 | 0.406 ± 0.1
CGAAAGCAAUAUUACGAUGU | -1.52 ± 0.074 | -1.15 ± 0.13
CGAAAGCAAUAUUACGAUUG | -0.934 ± 0.074 | -0.262 ± 0.1
CGAAAGCAAUAUUACGCCUA | -2.47 ± 0.24 | -0.736 ± 0.14
CGAAAGCAAUAUUACGCGCA | -0.957 ± 0.12 | -0.435 ± 0.13
CGAAAGCAAUAUUACGCGGA | -3.29 ± 0.26 | -1.83 ± 0.17
CGAAAGCAAUAUUACGGAUC | -2.95 ± 0.16 | -2.02 ± 0.15
CGAAAGCAAUAUUACGGCCA | -1.29 ± 0.14 | -1.23 ± 0.099
CGAAAGCAAUAUUACGGCCU | -1.32 ± 0.068 | -0.274 ± 0.082
CGAAAGCAAUAUUACGGGAC | – | -2.59 ± 0.32

Sequence | self-splicing fitness (ln) (30 °C) | self-splicing fitness (ln) (37 °C)
CGAAAGCAAUAUUACGUAAU | -4.18 ± 0.18 | -2.3 ± 0.12
CGAAAGCAAUAUUACGUCAA | -3.45 ± 0.34 | -2.11 ± 0.25
CGACAGCAAUAUUACGAACG | -0.656 ± 0.11 | -0.117 ± 0.16
CGACAGCAAUAUUACGAUUC | -3.6 ± 0.14 | -0.756 ± 0.08
CGACAGCAAUAUUACGCCGC | – | -1.74 ± 0.36
CGACAGCAAUAUUACGCGCU | -3.43 ± 0.12 | -1.91 ± 0.13
CGACAGCAAUAUUACGCUAG | -3.79 ± 0.25 | -2.04 ± 0.16
CGACAGCAAUAUUACGCUCC | -1.44 ± 0.12 | 0.42 ± 0.13
CGACAGCAAUAUUACGCUCG | -3.34 ± 0.37 | -2.18 ± 0.24
CGACAGCAAUAUUACGCUGG | -3.13 ± 0.18 | -2.1 ± 0.17
CGACAGCAAUAUUACGGACU | -0.957 ± 0.072 | -0.875 ± 0.11
CGACAGCAAUAUUACGGUAA | -1.81 ± 0.13 | -1.44 ± 0.11
CGACAGCAAUAUUACGGUCU | -0.546 ± 0.039 | 0.187 ± 0.056
CGACAGCAAUAUUACGGUUU | -1.64 ± 0.058 | -0.714 ± 0.084
CGACAGCAAUAUUACGUAUG | -1.26 ± 0.076 | -1.36 ± 0.1
CGACAGCAAUAUUACGUCGG | -1.83 ± 0.11 | -1.44 ± 0.15
CGACAGCAAUAUUACGUGCU | -4.84 ± 0.36 | -3.46 ± 0.23
CGACAGCAAUAUUACGUUAC | -3.39 ± 0.17 | -2.29 ± 0.2
CGACAGCAAUAUUACGUUGC | -3.9 ± 0.37 | -2.35 ± 0.36
CGACAGCAAUAUUACGUUUU | -3.62 ± 0.15 | -1.54 ± 0.11
CGAGAGCAAUAUUACGAAGU | – | -3.51 ± 0.39
CGAGAGCAAUAUUACGAGAA | – | -1.69 ± 0.43
CGAGAGCAAUAUUACGAGAG | -3.58 ± 0.35 | -0.712 ± 0.31
CGAGAGCAAUAUUACGAGCA | -1.62 ± 0.34 | –
CGAGAGCAAUAUUACGAGGU | -3.16 ± 0.21 | -2.02 ± 0.22
